Test system: MS2 coat protein
Assay: apparent KD of MS2 coat protein; designed switch direction (-1 OFF switch, 1 ON switch): -1; higher = weaker reporter binding
Procedure, shortened: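 SNAP-549-labelled MS2 coat protein was titrated, doubling from 0.7 or 1.5 nM to 3 µM, over designed RNA switches transcribed on Illumina chips by stalled E. coli RNA polymerase. Runs were done without input, with 200 uM small-molecule ligand, or with an oligonucleotide input. Apparent KD is the per-design median over clusters of curve-fitted normalised fluorescence.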

[1] = input ligand: microRNA oligo, concentration not stated

Sequence | apparent KD of MS2 coat protein (input ligand: FMN 200 uM) [nM] | apparent KD of MS2 coat protein [1] [nM] | apparent KD of MS2 coat protein (input ligand: none) [nM] | apparent KD of MS2 coat protein (Eterna round: R95, input ligand: microRNA oligo, concentration not stated) [nM]
ACAUGAGGAUCACCCAUGUCCGGCUGGUCCGUCUCGGCUGUCGAGGAUAUGGCUCGGUGUCCGCGCUAGAAGGUGGGAGCCGGC [Aenatbe mod 73] (Eterna round: R96, puzzle: Exclusion NG 3) | 332 | 127 | 266 | 
ACAUGAGGAUCACCCAUGUCCGGCUGGUCUGUUCCGGCUGUCGAGGAUAUAGUCCGGUGUUCGCGCUAGAAGGUGAGGGCUGGA [Aenatbe mod 45] (Eterna round: R96, puzzle: Exclusion NG 3) | 78.9 | 48.6 | 70.1 | 
ACAUGAGGAUCACCCAUGUCCGUCUGAUCUGUCUCGGCUGUCGAGGAUAUAGCCCGGUAUCCGCGCUAGAAGGUGGGAGUCGGC [Aenatbe mod 99] (Eterna round: R96, puzzle: Exclusion NG 3) | 29.8 | 25.3 | 35.7 | 
ACAUGAGGAUCACCCAUGUCUGGCUGGUCCGUCUCGGCUGUCGAGGAUAUAGCUCGGUGUCCGCGCUAGAAGGCGGGAGCUGGC [Aenatbe mod 81] (Eterna round: R96, puzzle: Exclusion NG 3) | 135 | 52.2 | 81 | 
ACAUGAGGAUCACCCAUGUGAAAACAAUGGCUGACACAGAGAUAGGAUAUAUGUGCAUAUCAAACAUAGAAGGGUCAUUACUGG [Deportation 86 - Jieux - Exclusion NG 3] (Eterna round: R96, puzzle: Exclusion NG 3) | 42.6 | 40.2 | 46.2 | 
ACAUGAGGAUCACCCAUGUGAAAACAAUGGCUGACUAAGAGAUAGGAUAUAUGUGCAUAUCAAACAUAGAAGGGUCAUUACUGG [Deportation 88 - Jieux - Exclusion NG 3] (Eterna round: R96, puzzle: Exclusion NG 3) | 36.1 | 25.3 | 37.2 | 
ACAUGAGGAUCACCCAUGUGACCACAAUGGCUGAUGUAACAACAGGAUAUGCGUGAAUAUCUAACGCAGAAGGGUUAUGACUGG [Deportation 60 - Jieux - Exclusion NG 3] (Eterna round: R96, puzzle: Exclusion NG 3) | 73.5 | 71.6 | 65.4 | 
ACAUGAGGAUCACCCAUGUUUUUCGGGUACUCUUUUUACAGCAAGGAUAUGCAUGUUUUUUUUACGCAGAAGGUGCUUUACGUC [JR_ExcNG3_Sub067] (Eterna round: R96, puzzle: Exclusion NG 3) |  | 77.7 |  | 
ACAUGUCCUGAGGAUAUCAAAGUCCUCCCGACAUGAGAAGGCAGGACAUGAGGAUCACCCAUGUGGAGCAGGGA [Aarorbeti] (Eterna round: R97, puzzle: Exclusion 6) | 420 |  | 111 | 
ACAUGUUAUGUAGGAUAUUGGACACAUGAGGAUCACCCAUGUAACCGGAGGCUUUACUAUGAGUUCGAGAAGGGUAUGAACAUG [Ex NG2 #67] (Eterna round: R96, puzzle: Exclusion NG 2) | 77.5 | 44.3 | 49.1 | 
ACAUGUUAUUUAGGAUAUUGGACACAUGAGGAUCACCCAUGUACCCGGAGGCUUUACUAUGAGUUCGAGAAGGAGAUGUACAUG [Ex NG2 #70] (Eterna round: R96, puzzle: Exclusion NG 2) | 89.3 | 59.3 | 75.6 | 
ACAUGUUGUCCAUGAUAUUACAUGAGGAUCACCCAUGUUAUGGCGAUUUUGAUGUGUAAGUUUGUUGCUCGUCUUAU [JR_STOV1_Sub061] (Eterna round: R97, puzzle: Sensor, turn-off variant 1) | 19.2 |  | 20.6 | 
ACAUGUUGUGCAGGAUAUGGGACACAUGAGGAUCACCCAUGUGGCUACAUGUCAUACCAAGCGUCUCAGAAGGGUAUUAACAUG [Ex NG2 #37] (Eterna round: R96, puzzle: Exclusion NG 2) | 31.9 | 24.8 | 23.2 | 
ACAUUGGUAGUGAGGAUAUCGGUGUGAUAGAAUGCCGAGAAGGCACAUGAGGAUCACCCAUGUAAGAUUGGGCA [JR_BMEx4_Sub043] (Eterna round: R97, puzzle: Brourd's mod of Exclusion 4) | 299 |  | 186 | 
ACCGUGCAAGGAUAUCGUUACCUCGACAUGAGGAUCACCCAUGUGGCCAUAUAGCGAUUGCGAGAAGGUGCGGGUA [Aatveti] (puzzle: Exclusion 5) |  |  |  | 85.2
